Substitutions are numbered along the chain they refer to. No end group written: not given here.
T1: N-terminal intrinsically disordered region (IDR) of ATG8 INTERACTING PROTEIN1 (ATI1) (Arabidopsis thaliana, UniProt O82775 1-180)
T1 sequence (looked up): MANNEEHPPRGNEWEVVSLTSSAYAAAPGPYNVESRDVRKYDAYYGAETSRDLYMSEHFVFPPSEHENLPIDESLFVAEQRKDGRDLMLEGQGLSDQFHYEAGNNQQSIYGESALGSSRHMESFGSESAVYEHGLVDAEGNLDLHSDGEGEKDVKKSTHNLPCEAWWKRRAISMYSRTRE

B1: His6-SUMO-NcGN^AGO1 (N-coil plus globular N-domain of Arabidopsis AGO1), wild type N-coil (domain or fragment, Arabidopsis thaliana, UniProt O04379-2 172-335, looked up)
chain: SSSKAFKFPMRPGKGQSGKRCIVKANHFFAELPDKDLHHYDVTITPEVTSRGVNRAVMKQLVDNYRDSHLGSRLPAYDGRKSLYTAGPLPFNSKEFRINLLDEEVGAGGQRREREFKVVIKLVARADLHHLGMFLEGKQSDAPQEAAQVADIVSRELPTSRIRY
modifications: red maleimide fluorophore on Cys192 (Monolith NT Protein Labeling Kit Red - Maleimide)
B2: His6-SUMO-NcGN^AGO1 K178E (domain or fragment, Arabidopsis thaliana, UniProt O04379-2 172-335, looked up)
chain: B1 chain with K7E
modifications: red maleimide fluorophore on Cys192 (Monolith NT Protein Labeling Kit Red - Maleimide)

Tests used:
[1] = target: T1, N-terminal intrinsically disordered …; experiment: NMR titration
[2] = target: T1, N-terminal intrinsically disordered …; experiment: MST

Row | binding result [1] | Kd [2] [µM] | Binder
1 | binds |  | SSSKAFKFPMRPGKGQSGKRC (also: 15N-labeled) [15N-labeled AGO1 N-coil peptide, wild type]
2 |  | 11 | B1
3 |  | 47 | B2

From paper doi:10.1101/2022.10.22.513346 (bioRxiv, 2022)
